# Source: patent US20140087995A1 (published 2014)
# Numbered stars: 1 amine (or outer) side, 2 acyl side, 3 side chain; on linkers, the order of the positions; unused ones are H or OH. Bridge positions count the residues as written; N and C are the ends. Side chains are listed from the residue outwards. Ends that are not written are not given here. * marks the point of attachment. C20 diacid = O=C(O)CCCCCCCCCCCCCCCCCCC(=O)*; γGlu = O=C(O)[C@H](CCC(=O)[*:2])N[*:1]; AEEA = NCCOCCOCC(=O)O
# B1: N^ε1-[2-[2-[2-[[(4S)-4-carboxy-4-(19-carboxynonadecanoylamino)butanoyl]amino]ethoxy]ethoxy]acetyl]-[Arg17,Pro21,Pro27,Arg34]-h-amylin (peptide)
# peptide: K([AEEA-γGlu-C20 diacid])CNTATCATQRLANFLRHSSPNFGAIPSSTNVGRNTY-NH2
# modifications: disulfide 2-7; N-terminus assumed
# SMILES: CC[C@H](C)[C@H](NC(=O)[C@H](C)NC(=O)CNC(=O)[C@H](Cc1ccccc1)NC(=O)[C@H](CC(N)=O)NC(=O)[C@@H]1CCCN1C(=O)[C@H](CO)NC(=O)[C@H](CO)NC(=O)[C@H](Cc1c[nH]cn1)NC(=O)[C@H](CCCNC(=N)N)NC(=O)[C@H](CC(C)C)NC(=O)[C@H](Cc1ccccc1)NC(=O)[C@H](CC(N)=O)NC(=O)[C@H](C)NC(=O)[C@H](CC(C)C)NC(=O)[C@H](CCCNC(=N)N)NC(=O)[C@H](CCC(N)=O)NC(=O)[C@@H](NC(=O)[C@H](C)NC(=O)[C@@H]1CSSC[C@H](NC(=O)[C@@H](N)CCCCNC(=O)COCCOCCNC(=O)CC[C@H](NC(=O)CCCCCCCCCCCCCCCCCCC(=O)O)C(=O)O)C(=O)N[C@@H](CC(N)=O)C(=O)N[C@@H]([C@@H](C)O)C(=O)N[C@@H](C)C(=O)N[C@@H]([C@@H](C)O)C(=O)N1)[C@@H](C)O)C(=O)N1CCC[C@H]1C(=O)N[C@@H](CO)C(=O)N[C@@H](CO)C(=O)N[C@H](C(=O)N[C@@H](CC(N)=O)C(=O)N[C@H](C(=O)NCC(=O)N[C@@H](CCCNC(=N)N)C(=O)N[C@@H](CC(N)=O)C(=O)N[C@H](C(=O)N[C@@H](Cc1ccc(O)cc1)C(N)=O)[C@@H](C)O)C(C)C)[C@@H](C)O
# notes: also called compound 78
# B2: N^ε1-[2-[2-[2-[[(4S)-4-carboxy-4-(19-carboxynonadecanoylamino)butanoyl]amino]ethoxy]ethoxy]acetyl]-[Arg17,Pro21,Pro27,His34]-h-amylin (peptide)
# peptide: K([AEEA-γGlu-C20 diacid])CNTATCATQRLANFLRHSSPNFGAIPSSTNVGHNTY-NH2
# modifications: disulfide 2-7; N-terminus assumed
# SMILES: CC[C@H](C)[C@H](NC(=O)[C@H](C)NC(=O)CNC(=O)[C@H](Cc1ccccc1)NC(=O)[C@H](CC(N)=O)NC(=O)[C@@H]1CCCN1C(=O)[C@H](CO)NC(=O)[C@H](CO)NC(=O)[C@H](Cc1c[nH]cn1)NC(=O)[C@H](CCCNC(=N)N)NC(=O)[C@H](CC(C)C)NC(=O)[C@H](Cc1ccccc1)NC(=O)[C@H](CC(N)=O)NC(=O)[C@H](C)NC(=O)[C@H](CC(C)C)NC(=O)[C@H](CCCNC(=N)N)NC(=O)[C@H](CCC(N)=O)NC(=O)[C@@H](NC(=O)[C@H](C)NC(=O)[C@@H]1CSSC[C@H](NC(=O)[C@@H](N)CCCCNC(=O)COCCOCCNC(=O)CC[C@H](NC(=O)CCCCCCCCCCCCCCCCCCC(=O)O)C(=O)O)C(=O)N[C@@H](CC(N)=O)C(=O)N[C@@H]([C@@H](C)O)C(=O)N[C@@H](C)C(=O)N[C@@H]([C@@H](C)O)C(=O)N1)[C@@H](C)O)C(=O)N1CCC[C@H]1C(=O)N[C@@H](CO)C(=O)N[C@@H](CO)C(=O)N[C@H](C(=O)N[C@@H](CC(N)=O)C(=O)N[C@H](C(=O)NCC(=O)N[C@@H](Cc1c[nH]cn1)C(=O)N[C@@H](CC(N)=O)C(=O)N[C@H](C(=O)N[C@@H](Cc1ccc(O)cc1)C(N)=O)[C@@H](C)O)C(C)C)[C@@H](C)O
# notes: also called compound 76
# B3: N^ε1-[2-[2-[2-[[(4S)-4-carboxy-4-(19-carboxynonadecanoylamino)butanoyl]amino]ethoxy]ethoxy]acetyl]-[Arg17,Pro21,Pro27,Pro29,Pro34]-h-amylin (peptide)
# peptide: K([AEEA-γGlu-C20 diacid])CNTATCATQRLANFLRHSSPNFGAIPSPTNVGPNTY-NH2
# modifications: disulfide 2-7; N-terminus assumed
# SMILES: CC[C@H](C)[C@H](NC(=O)[C@H](C)NC(=O)CNC(=O)[C@H](Cc1ccccc1)NC(=O)[C@H](CC(N)=O)NC(=O)[C@@H]1CCCN1C(=O)[C@H](CO)NC(=O)[C@H](CO)NC(=O)[C@H](Cc1c[nH]cn1)NC(=O)[C@H](CCCNC(=N)N)NC(=O)[C@H](CC(C)C)NC(=O)[C@H](Cc1ccccc1)NC(=O)[C@H](CC(N)=O)NC(=O)[C@H](C)NC(=O)[C@H](CC(C)C)NC(=O)[C@H](CCCNC(=N)N)NC(=O)[C@H](CCC(N)=O)NC(=O)[C@@H](NC(=O)[C@H](C)NC(=O)[C@@H]1CSSC[C@H](NC(=O)[C@@H](N)CCCCNC(=O)COCCOCCNC(=O)CC[C@H](NC(=O)CCCCCCCCCCCCCCCCCCC(=O)O)C(=O)O)C(=O)N[C@@H](CC(N)=O)C(=O)N[C@@H]([C@@H](C)O)C(=O)N[C@@H](C)C(=O)N[C@@H]([C@@H](C)O)C(=O)N1)[C@@H](C)O)C(=O)N1CCC[C@H]1C(=O)N[C@@H](CO)C(=O)N1CCC[C@H]1C(=O)N[C@H](C(=O)N[C@@H](CC(N)=O)C(=O)N[C@H](C(=O)NCC(=O)N1CCC[C@H]1C(=O)N[C@@H](CC(N)=O)C(=O)N[C@H](C(=O)N[C@@H](Cc1ccc(O)cc1)C(N)=O)[C@@H](C)O)C(C)C)[C@@H](C)O
# notes: also called compound 56
# B4: N^ε1-[2-[2-[2-[[(4S)-4-carboxy-4-(19-carboxynonadecanoylamino)butanoyl]amino]ethoxy]ethoxy]acetyl]-[Arg17,Pro21,Pro27,Pro28,Pro34]-h-amylin (peptide)
# peptide: K([AEEA-γGlu-C20 diacid])CNTATCATQRLANFLRHSSPNFGAIPPSTNVGPNTY-NH2
# modifications: disulfide 2-7; N-terminus assumed
# SMILES: CC[C@H](C)[C@H](NC(=O)[C@H](C)NC(=O)CNC(=O)[C@H](Cc1ccccc1)NC(=O)[C@H](CC(N)=O)NC(=O)[C@@H]1CCCN1C(=O)[C@H](CO)NC(=O)[C@H](CO)NC(=O)[C@H](Cc1c[nH]cn1)NC(=O)[C@H](CCCNC(=N)N)NC(=O)[C@H](CC(C)C)NC(=O)[C@H](Cc1ccccc1)NC(=O)[C@H](CC(N)=O)NC(=O)[C@H](C)NC(=O)[C@H](CC(C)C)NC(=O)[C@H](CCCNC(=N)N)NC(=O)[C@H](CCC(N)=O)NC(=O)[C@@H](NC(=O)[C@H](C)NC(=O)[C@@H]1CSSC[C@H](NC(=O)[C@@H](N)CCCCNC(=O)COCCOCCNC(=O)CC[C@H](NC(=O)CCCCCCCCCCCCCCCCCCC(=O)O)C(=O)O)C(=O)N[C@@H](CC(N)=O)C(=O)N[C@@H]([C@@H](C)O)C(=O)N[C@@H](C)C(=O)N[C@@H]([C@@H](C)O)C(=O)N1)[C@@H](C)O)C(=O)N1CCC[C@H]1C(=O)N1CCC[C@H]1C(=O)N[C@@H](CO)C(=O)N[C@H](C(=O)N[C@@H](CC(N)=O)C(=O)N[C@H](C(=O)NCC(=O)N1CCC[C@H]1C(=O)N[C@@H](CC(N)=O)C(=O)N[C@H](C(=O)N[C@@H](Cc1ccc(O)cc1)C(N)=O)[C@@H](C)O)C(C)C)[C@@H](C)O
# notes: also called compound 55
# B5: N^ε1-[2-[2-[2-[[(4S)-4-carboxy-4-(19-carboxynonadecanoylamino)butanoyl]amino]ethoxy]ethoxy]acetyl]-[Arg17,Pro21,Pro27,Pro29,Pro31]-h-amylin (peptide)
# peptide: K([AEEA-γGlu-C20 diacid])CNTATCATQRLANFLRHSSPNFGAIPSPTPVGSNTY-NH2
# modifications: disulfide 2-7; N-terminus assumed
# SMILES: CC[C@H](C)[C@H](NC(=O)[C@H](C)NC(=O)CNC(=O)[C@H](Cc1ccccc1)NC(=O)[C@H](CC(N)=O)NC(=O)[C@@H]1CCCN1C(=O)[C@H](CO)NC(=O)[C@H](CO)NC(=O)[C@H](Cc1c[nH]cn1)NC(=O)[C@H](CCCNC(=N)N)NC(=O)[C@H](CC(C)C)NC(=O)[C@H](Cc1ccccc1)NC(=O)[C@H](CC(N)=O)NC(=O)[C@H](C)NC(=O)[C@H](CC(C)C)NC(=O)[C@H](CCCNC(=N)N)NC(=O)[C@H](CCC(N)=O)NC(=O)[C@@H](NC(=O)[C@H](C)NC(=O)[C@@H]1CSSC[C@H](NC(=O)[C@@H](N)CCCCNC(=O)COCCOCCNC(=O)CC[C@H](NC(=O)CCCCCCCCCCCCCCCCCCC(=O)O)C(=O)O)C(=O)N[C@@H](CC(N)=O)C(=O)N[C@@H]([C@@H](C)O)C(=O)N[C@@H](C)C(=O)N[C@@H]([C@@H](C)O)C(=O)N1)[C@@H](C)O)C(=O)N1CCC[C@H]1C(=O)N[C@@H](CO)C(=O)N1CCC[C@H]1C(=O)N[C@H](C(=O)N1CCC[C@H]1C(=O)N[C@H](C(=O)NCC(=O)N[C@@H](CO)C(=O)N[C@@H](CC(N)=O)C(=O)N[C@H](C(=O)N[C@@H](Cc1ccc(O)cc1)C(N)=O)[C@@H](C)O)C(C)C)[C@@H](C)O
# notes: also called compound 54
# Biological target: T1, human amylin receptor (amylin 3(a) receptor: human calcitonin receptor co-expressed with RAMP-3) (human, UniProt P30988 25-474; O60896 24-148, limits assumed)
# T1 sequence (looked up) 1: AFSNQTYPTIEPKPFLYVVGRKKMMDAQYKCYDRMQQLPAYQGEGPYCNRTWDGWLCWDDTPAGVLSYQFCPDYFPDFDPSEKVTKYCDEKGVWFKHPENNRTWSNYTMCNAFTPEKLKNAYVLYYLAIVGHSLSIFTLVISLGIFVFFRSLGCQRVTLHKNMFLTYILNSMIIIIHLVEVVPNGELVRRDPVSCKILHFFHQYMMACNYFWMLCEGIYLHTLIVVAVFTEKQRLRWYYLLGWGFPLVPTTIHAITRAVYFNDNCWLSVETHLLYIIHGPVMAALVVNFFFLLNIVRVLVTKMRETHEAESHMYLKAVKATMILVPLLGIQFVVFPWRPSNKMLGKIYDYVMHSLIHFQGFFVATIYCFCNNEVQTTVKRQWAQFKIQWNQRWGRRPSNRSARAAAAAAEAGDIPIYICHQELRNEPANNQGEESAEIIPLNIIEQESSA
# T1 sequence (looked up) 2: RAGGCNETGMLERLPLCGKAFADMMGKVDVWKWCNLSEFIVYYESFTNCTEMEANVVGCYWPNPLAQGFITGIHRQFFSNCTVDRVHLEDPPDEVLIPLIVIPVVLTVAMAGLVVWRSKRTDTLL
# Test: cell-based or functional assay
row,Binder,hAmylin-R funct. EC50 [nM]
1,B1,0.316
2,"K([AEEA-γGlu-C20 diacid])CNTATCATQRLANFLRHSSPNFGAIPPSTPVGSNTY-NH2 (disulfide 2-7, also called compound 53)",0.064
3,B2,0.297
4,B3,0.102
5,B4,0.068
6,B5,0.103

# Biological target: T2, human calcitonin receptor (human, UniProt P30988 25-474)
# T2 sequence (looked up): T1 sequence (looked up) 1
# Test: cell-based or functional assay
Binder,Ratio hCT/hAmylin funct. (hCTR EC50 against hAmylin-R EC50),hCTR funct. EC50 [nM]
B1,25.8,8.17
"K([AEEA-γGlu-C20 diacid])CNTATCATQRLANFLRHSSPNFGAIPPSTPVGSNTY-NH2 (disulfide 2-7, also called compound 53)",9.8,0.625
B2,24.8,7.37
B3,5,0.506
B4,10.8,0.731
B5,9.6,0.987
